The text below walks through data of patent EP4721730A1, “PHARMACEUTICAL COMPOSITION COMPRISING SUSTAINED-RELEASE MICROSPHERE COMPRISING CAGRILINTIDE OR PHARMACEUTICALLY ACCEPTABLE SALT THEREOF AND PREPARATION METHOD THEREFOR” (G2GBIO, Inc., priority 2023, dated 2024).

A short description of the data set: Pharmacokinetics of a single-dose subcutaneous administration using SD rats (concentration of cagrilintide in blood). It is filed as in vivo. The following applies: s.c. 1.2 mg/head. The procedure:
In order to evaluate a potential of the microsphere according to the present invention as a sustained-release therapeutic agent, the concentration of the cagrilintide in rat blood was measured by the following method.
Specifically, the microsphere was measured so that a dosage of the cagrilintide becomes 1.2 mg/head (API raw material solution, Example 5-6) or 3.6 mg/head (Comparative Examples 1 to 2, Examples 1-1 to 1-3, Example 5-1), dispersed in 0.5 mL of a suspension, and then subcutaneously injected into SD rats. 0.25 to 0.5 mL of blood was collected at prescheduled times and the concentration of the cagrilintide in blood was measured using HPLC.

On to “cagrilintide [API raw material solution]”, for which the cumulative blood concentration runs as follows: (day 0, cagrilintide) 0.0%; (day 0.042, cagrilintide) 0.2%; (day 0.250, cagrilintide) 4.5%; (day 1, cagrilintide) 35.2%; (day 4, cagrilintide) 91.1%; (day 7, cagrilintide) 100.0%.
